# *1 amine or outer side, *2 acyl side, *3 side chain or, on linkers, in order; H or OH if unused. Bridges are numbered along the chain shown (N, C = ends). Primed or numbered codes have the meaning given here. [ ]: non-standard residue; d: D form. The star is where a group is joined. Ttds = 1,13-diamino-4,7,10-trioxatridecan-succinamic acid, NCCCOCCOCCOCCCNC(=O)CCC(=O)*; Pro(trans-4-NH2) = O=C([C@@H]1C[C@@H](N[*:3])CN1[*:1])[*:2]; DOTA = O=C(O)CN1CCN(CC(=O)O)CCN(CC(=O)*)CCN(CC(=O)O)CC1; MeO2kDaPEGAc″ = methoxy polydisperse 2 kDa PEG acetyl; Trp(5-Cl) = N[C@@H](Cc1c[nH]c2ccc(Cl)cc12)C(=O)O; Trp(6-Cl) = N[C@@H](Cc1c[nH]c2cc(Cl)ccc12)C(=O)O; Phe(3,5-Cl2) = N[C@@H](Cc1cc(Cl)cc(Cl)c1)C(=O)O; Pyridine(2,6-diCH2) = c1cc(C[*:1])nc(C[*:2])c1; Trp(7-aza) = N[C@@H](Cc1c[nH]c2ncccc12)C(=O)O; 2Lut″ = 2,6-lutidylidene linking two thiols; APAc = 4-amino-1-carboxymethylpiperidine; Pro(4S-NH2) = N[C@@H]1CN[C@H](C(=O)O)C1; Phe(2-Cl) = N[C@@H](Cc1ccccc1Cl)C(=O)O; 1Nal = N[C@@H](Cc1cccc2ccccc12)C(=O)O; mXylylene = c1cc(C[*:1])cc(C[*:2])c1; Glutaryl = O=C(CCCC(=O)[*:2])[*:1]; AGLU = 1-amino-1-deoxy-D-glucitol; dDap(NTASEROL) = not defined here; Hyp = O=C(O)[C@@H]1C[C@@H](O)CN1; Cysteamide = C(CS[*:3])N[*:1]; Suc = O=C(CCC(=O)[*:2])[*:1]; hLeu = CC(C)CC[C@H](N)C(=O)O; GLUSEROL = not defined here; NTASEROL = not defined here; 2Lut(3) = 2,6-lutidylidene; hCys = N[C@@H](CCS)C(=O)O; Api = NC1(C(=O)O)CCNCC1; Thp = NC1(C(=O)O)CCOCC1; Aib = CC(C)(N)C(=O)O; mli″ = maleimide
# B1: DOTA-Ttds-Asp-Trp-5Clw-Pro-Glu-leu-[Cys(3MeBn)-Aib-Leu-Ile-AET] (peptide)
# peptide: {DOTA-Ttds}-DW[Trp(5-Cl)]PE[dL]C[Aib]LI[Cysteamide]
# modifications: linker (positions not given here) via mXylylene; not fully specified (bridges); printed as DOTA-Ttds-Asp-Trp-5Clw-Pro-Glu-leu-[Cys(3MeBn)-Aib-Leu-Ile-AET]
# B2: Ac-Asp-Trp-5Clw-Hyp-Glu-leu-[Cys(2Lut)-Thp-Leu-Phe-Cys]-NH2 (peptide)
# peptide: Ac-DW[Trp(5-Cl)][Hyp]E[dL]C[Thp]LFC-NH2
# modifications: linker 7-11 via Pyridine(2,6-diCH2)
# SMILES: CC(=O)N[C@@H](CC(=O)O)C(=O)N[C@@H](Cc1c[nH]c2ccccc12)C(=O)N[C@@H](Cc1c[nH]c2ccc(Cl)cc12)C(=O)N1C[C@H](O)C[C@H]1C(=O)N[C@@H](CCC(=O)O)C(=O)N[C@H](CC(C)C)C(=O)N[C@H]1CSCc2cccc(n2)CSC[C@@H](C(N)=O)NC(=O)[C@H](Cc2ccccc2)NC(=O)[C@H](CC(C)C)NC(=O)C2(CCOCC2)NC1=O
# B3: Ac-Asp-Egn-5Clw-Hyp-Glu-leu-[Cys(2Lut)-Thp-Leu-Ile-Cys]-NH2 (peptide)
# peptide: Ac-D[Phe(3,5-Cl2)][Trp(5-Cl)][Hyp]E[dL]C[Thp]LIC-NH2
# modifications: linker 7-11 via Pyridine(2,6-diCH2)
# SMILES: CC[C@H](C)[C@@H]1NC(=O)[C@H](CC(C)C)NC(=O)C2(CCOCC2)NC(=O)[C@@H](NC(=O)[C@@H](CC(C)C)NC(=O)[C@H](CCC(=O)O)NC(=O)[C@@H]2C[C@@H](O)CN2C(=O)[C@H](Cc2c[nH]c3ccc(Cl)cc23)NC(=O)[C@H](Cc2cc(Cl)cc(Cl)c2)NC(=O)[C@H](CC(=O)O)NC(C)=O)CSCc2cccc(n2)CSC[C@@H](C(N)=O)NC1=O
# B4: DOTA-Ttds-Asp-Trp-5Clw-Pro-Glu-leu-[Cys(3MeBn)-Apc(Ac)-Leu-Ile-AET] (peptide)
# peptide: {DOTA-Ttds}-DW[Trp(5-Cl)]PE[dL]C[Api](Ac)LI[Cysteamide]
# modifications: linker (positions not given here) via mXylylene; not fully specified (bridges); printed as DOTA-Ttds-Asp-Trp-5Clw-Pro-Glu-leu-[Cys(3MeBn)-Apc(Ac)-Leu-Ile-AET]
# Columns and labels:
# [1] = biological target: human Gastric Inhibitory Peptide Receptor (GIPR) (human) (UniProt P48546); assay: FACS competition vs biotinylated GIP-057 on CHO-K1-hGIPR cells; category B: pIC50 7.1-8.0
# human Gastric Inhibitory Peptide Receptor (GIPR) (human), sequence (P48546 22-466 limits assumed): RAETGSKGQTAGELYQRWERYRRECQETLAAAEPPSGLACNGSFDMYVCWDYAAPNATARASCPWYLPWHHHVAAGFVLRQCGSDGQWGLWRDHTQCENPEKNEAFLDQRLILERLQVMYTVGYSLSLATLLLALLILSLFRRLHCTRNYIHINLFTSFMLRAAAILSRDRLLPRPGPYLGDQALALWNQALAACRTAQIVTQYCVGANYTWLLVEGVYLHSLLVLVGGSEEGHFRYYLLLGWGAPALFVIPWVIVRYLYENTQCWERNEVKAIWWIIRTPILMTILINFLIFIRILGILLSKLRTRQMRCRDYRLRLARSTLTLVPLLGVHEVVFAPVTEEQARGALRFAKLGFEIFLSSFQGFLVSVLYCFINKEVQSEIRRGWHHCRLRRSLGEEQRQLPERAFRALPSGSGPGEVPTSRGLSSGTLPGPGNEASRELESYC
# [2] = biological target: human Gastric Inhibitory Peptide Receptor (human) (UniProt P48546); assay: FACS competition with GIP-057 on CHO-K1-hGIPR cells; pIC50 category B: 7.1-8.0
# human Gastric Inhibitory Peptide Receptor (human), sequence (P48546 22-466 limits assumed): as above
# [3] = biological target: biotinylated extracellular domain of the human GIP receptor (bioGIPR) (human) (UniProt P48546); assay: SPR single cycle kinetics, bioGIPR captured on chip; category A: pKD >9.0
# biotinylated extracellular domain of the human GIP receptor (bioGIPR) (human), sequence (P48546 24-138 limits assumed): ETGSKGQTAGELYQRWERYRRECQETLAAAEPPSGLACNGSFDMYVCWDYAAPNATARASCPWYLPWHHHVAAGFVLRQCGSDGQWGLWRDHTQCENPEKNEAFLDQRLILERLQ
# [4] = biological target: human Gastric Inhibitory Peptide Receptor (human) (UniProt P48546); assay: FACS competition with GIP-057 on CHO-K1-hGIPR cells; pIC50 category A: >8.0
# [5] = biological target: biotinylated extracellular domain of the human GIP receptor (bioGIPR) (human) (UniProt P48546); assay: SPR single cycle kinetics, bioGIPR captured on chip; category A: t1/2 >15 min
# [6] = biological target: human Gastric Inhibitory Peptide Receptor (GIPR) (human) (UniProt P48546); assay: FACS competition vs biotinylated GIP-057 on CHO-K1-hGIPR cells; category A: pIC50 >8.0
molecule,measurement,setting,value
Ac-Asp-Trp-5Clw-Hyp-Glu-leu-[Cys(2Lut)-Apc(DOTA)-Leu-Phe-Cys]-NH2 (peptide),pIC50,[1],7.1 to 8 pic50
DOTA-Ttds-Nmd-Trp-Trp-Pro-Glu-Leu-[Cys(3MeBn)-Aib-Leu-Ile-AET] (peptide),pIC50,[2],7.1 to 8 pic50
Ac-DW[Trp(5-Cl)][Hyp]E[dL][hCys][Thp]LI[hCys]-NH2 (disulfide 7-11) [Ac-Asp-Trp-5Clw-Hyp-Glu-leu-[Hcy-Thp-Leu-Ile-Hcy]-NH2],pIC50,[1],7.1 to 8 pic50
B1,pKD,[3],> 9 pkd
same,pIC50,[4],> 8 pic50
same,t1/2,[5],> 15 min
"Ac-D[Phe(2-Cl)][Trp(5-Cl)][Hyp]E[dL]C[Api](DOTA)LIC-NH2 (linker 7-11 via Pyridine(2,6-diCH2)) [Ac-Asp-Ocf-5Clw-Hyp-Glu-leu-[Cys(2Lut)-Apc(DOTA)-Leu-Ile-Cys]-NH2]",pIC50,[1],7.1 to 8 pic50
Ac-DW[Trp(7-aza)][Hyp]E[dL]C[Thp]LIC-NH2 (linker 7-11 via 2Lut″) [Ac-Asp-Trp-7Nw-Hyp-Glu-leu-[Cys(2Lut)-Thp-Leu-Ile-Cys]-NH2],pIC50,[1],7.1 to 8 pic50
"Ac-DW[Trp(5-Cl)][Hyp]P[dL]C[Thp]LIC-NH2 (linker 7-11 via Pyridine(2,6-diCH2)) [Ac-Asp-Trp-5Clw-Hyp-Pro-leu-[Cys(2Lut)-Thp-Leu-Ile-Cys]-NH2]",pIC50,[1],7.1 to 8 pic50
"{DOTA-Ttds}-DW[Phe(3,5-Cl2)][Hyp]E[dL]C[Thp]LIC-NH2 (linker 7-11 via Pyridine(2,6-diCH2)) [DOTA-Ttds-Asp-Trp-Egn-Hyp-Glu-leu-[Cys(2Lut)-Thp-Leu-Ile-Cys]-NH2]",pIC50,[1],7.1 to 8 pic50
"Ac-DW[Trp(5-Cl)][Hyp]F[dL]C[Thp]LIC-NH2 (linker 7-11 via Pyridine(2,6-diCH2)) [Ac-Asp-Trp-5Clw-Hyp-Phe-leu-[Cys(2Lut)-Thp-Leu-Ile-Cys]-NH2]",pIC50,[1],7.1 to 8 pic50
"{AGLU-Glutaryl}-DW[Trp(5-Cl)][Pro(trans-4-NH2)]E[dL]C[Api](DOTA)LIC-{APAc-GLUSEROL} (linker 7-11 via Pyridine(2,6-diCH2); reading uncertain) [AGLU-Glutar-Asp-Trp-5Clw-Tap-Glu-leu-[Cys(2Lut)-Apc(DOTA)-Leu-Ile-Cys]-APAc-GLUSEROL]",pKD,[3],> 9 pkd
same,t1/2,[5],> 15 min
same,pIC50,[6],> 8 pic50
Ac-DW[1Nal][Pro(trans-4-NH2)](DOTA)E[hLeu]C[Aib]LIC-NH2 (linker 7-11 via mXylylene) [Ac-Asp-Trp-1Ni-Tap(DOTA)-Glu-Hle-[Cys(3MeBn)-Aib-Leu-Ile-Cys]-NH2],pIC50,[1],7.1 to 8 pic50
"Suc-W[Trp(5-Cl)][Hyp]E[dL]C[Api](MeO2kDaPEGAc″)LIC-{APAc-Lys(DOTA)-NH2} (linker 6-10 via Pyridine(2,6-diCH2)) [HO-Succinyl-Trp-5Clw-Hyp-Glu-leu-[Cys(2Lut)-Apc(MeO2kDaPEGAc)-Leu-Ile-Cys]-APAc-Lys(DOTA)-NH2]",pIC50,[2],7.1 to 8 pic50
"{NTASEROL}-DW[Trp(5-Cl)][Pro(trans-4-NH2)]E[dL]C[Api](DOTA)LIC-{APAc-dDap(NTASEROL)-NH2} (linker 7-11 via Pyridine(2,6-diCH2); reading uncertain) [NTASEROL-Asp-Trp-5Clw-Tap-Glu-leu-[Cys(2Lut)-Apc(DOTA)-Leu-Ile-Cys]-APAc-dap(NTASEROL)-NH2]",pKD,[3],> 9 pkd
same,t1/2,[5],> 15 min
same,pIC50,[6],> 8 pic50
{DOTA-Ttds}-D[Trp(6-Cl)]WPE[dL]C[Aib]LI[Cysteamide] (linker 7-11 via mXylylene) [DOTA-Ttds-Asp-6Clw-Trp-Pro-Glu-leu-[Cys(3MeBn)-Aib-Leu-Ile-AET]],pIC50,[2],7.1 to 8 pic50
"Ac-D[Phe(2-Cl)][Trp(5-Cl)][Hyp]E[dL]C[Thp]LIC-NH2 (linker 7-11 via Pyridine(2,6-diCH2)) [Ac-Asp-Ocf-5Clw-Hyp-Glu-leu-[Cys(2Lut)-Thp-Leu-Ile-Cys]-NH2]",pIC50,[1],7.1 to 8 pic50
"Ac-DW[Trp(5-Cl)][Hyp]W[dL]C[Thp]LIC-NH2 (linker 7-11 via Pyridine(2,6-diCH2)) [Ac-Asp-Trp-5Clw-Hyp-Trp-leu-[Cys(2Lut)-Thp-Leu-Ile-Cys]-NH2]",pIC50,[1],7.1 to 8 pic50
{DOTA-Ttds}-DW[Trp(5-Cl)][Pro(4S-NH2)]E[dL]C[Aib]LI[Cysteamide] (linker 7-11 via mXylylene) [DOTA-Ttds-Asp-Trp-5Clw-4Ap-Glu-leu-[Cys(3MeBn)-Aib-Leu-Ile-AET]],pKD,[3],> 9 pkd
same,pIC50,[4],> 8 pic50
same,t1/2,[5],> 15 min
Ac-DW[Trp(5-Cl)][Pro(trans-4-NH2)](DOTA)E[dL]C[Thp]LFC-NH2 (linker 7-11 via 2Lut″) [Ac-Asp-Trp-5Clw-Tap(DOTA)-Glu-leu-[Cys(2Lut)-Thp-Leu-Phe-Cys]-NH2],pIC50,[1],7.1 to 8 pic50
B2,pIC50,[1],7.1 to 8 pic50
"Ac-D[Phe(2-Cl)][Trp(5-Cl)][Pro(trans-4-NH2)](DOTA)E[dL]C[Thp]LIC-NH2 (linker 7-11 via Pyridine(2,6-diCH2)) [Ac-Asp-Ocf-5Clw-Tap(DOTA)-Glu-leu-[Cys(2Lut)-Thp-Leu-Ile-Cys]-NH2]",pIC50,[1],7.1 to 8 pic50
"{NTASEROL}-DW[Trp(5-Cl)][Pro(trans-4-NH2)]E[dL]C[Api](DOTA)LIC-{APAc-GLUSEROL} (linker 7-11 via Pyridine(2,6-diCH2); reading uncertain) [NTASEROL-Asp-Trp-5Clw-Tap-Glu-leu-[Cys(2Lut)-Apc(DOTA)-Leu-Ile-Cys]-APAc-GLUSEROL]",pKD,[3],> 9 pkd
same,t1/2,[5],> 15 min
same,pIC50,[6],> 8 pic50
"Ac-DW[Phe(2,3-Cl2)][Hyp]E[dL]C[Thp]LIC-NH2 (linker 7-11 via 2Lut″) [Ac-Asp-Trp-Egp-Hyp-Glu-leu-[Cys(2Lut)-Thp-Leu-Ile-Cys]-NH2]",pIC50,[1],7.1 to 8 pic50
"Ac-DW[Phe(3,5-Cl2)][Hyp]E[dL]C[Thp]LIC-NH2 (linker 7-11 via 2Lut″) [Ac-Asp-Trp-Egn-Hyp-Glu-leu-[Cys(2Lut)-Thp-Leu-Ile-Cys]-NH2]",pIC50,[1],7.1 to 8 pic50
B3,pIC50,[1],7.1 to 8 pic50
{DOTA-Ttds}-DW[Trp(5-Cl)][Hyp]E[dL]C[Thp]LFC-NH2 (linker 7-11 via 2Lut(3)) [DOTA-Ttds-Asp-Trp-5Clw-Hyp-Glu-leu-[Cys(2Lut)-Thp-Leu-Phe-Cys]-NH2],pIC50,[1],7.1 to 8 pic50
{DOTA-Ttds}-DW[Trp(5-Cl)][Pro(trans-4-NH2)]E[dL]C[Aib]LI[Cysteamide] (linker 7-11 via mXylylene) [DOTA-Ttds-Asp-Trp-5Clw-Tap-Glu-leu-[Cys(3MeBn)-Aib-Leu-Ile-AET]],pKD,[3],> 9 pkd
same,pIC50,[4],> 8 pic50
same,t1/2,[5],> 15 min
Ac-DW[Trp(5-Cl)][Hyp]E[dL][hCys][Thp]LIC-NH2 (linker 7-11 via mli″) [Ac-Asp-Trp-5Clw-Hyp-Glu-leu-[Hcy(mli)-Thp-Leu-Ile-Cys]-NH2],pIC50,[1],7.1 to 8 pic50
"Ac-DW[Trp(5-Cl)][Hyp]E[dL]C[Thp]LFC-{(dK)(DOTA)-NH2} (linker 7-11 via Pyridine(2,6-diCH2)) [Ac-Asp-Trp-5Clw-Hyp-Glu-leu-[Cys(2Lut)-Thp-Leu-Phe-Cys]-lys(DOTA)-NH2]",pIC50,[1],7.1 to 8 pic50
B4,pKD,[3],> 9 pkd
same,pIC50,[4],> 8 pic50
same,t1/2,[5],> 15 min
{DOTA-Ttds}-D[Phe(2-Cl)][Trp(5-Cl)][Hyp]E[dL]C[Thp]LIC-NH2 (linker 7-11 via 2Lut(3)) [DOTA-Ttds-Asp-Ocf-5Clw-Hyp-Glu-leu-[Cys(2Lut)-Thp-Leu-Ile-Cys]-NH2],pIC50,[1],7.1 to 8 pic50

# — patent US20250296971A1, “GASTRIC INHIBITORY PEPTIDE RECEPTOR LIGANDS” (priority 2021, published 2025)
